Series [1] deals with the molecule itself. Kind of series: crystal structure; FtsZtr mixed with 1.2x molar excess of Mb and PC190723; hanging drop, 293 K, 0.2 M sodium formate, 0.1 M Bis-Tris propane pH 6.5, 20% PEG3350; space groups P212121 and P21.
The target of series [2] is T1, FtsZ from Escherichia coli, full length, purified (tag state not stated) (Escherichia coli, UniProt P0A9A6 1-383).
T1 chain: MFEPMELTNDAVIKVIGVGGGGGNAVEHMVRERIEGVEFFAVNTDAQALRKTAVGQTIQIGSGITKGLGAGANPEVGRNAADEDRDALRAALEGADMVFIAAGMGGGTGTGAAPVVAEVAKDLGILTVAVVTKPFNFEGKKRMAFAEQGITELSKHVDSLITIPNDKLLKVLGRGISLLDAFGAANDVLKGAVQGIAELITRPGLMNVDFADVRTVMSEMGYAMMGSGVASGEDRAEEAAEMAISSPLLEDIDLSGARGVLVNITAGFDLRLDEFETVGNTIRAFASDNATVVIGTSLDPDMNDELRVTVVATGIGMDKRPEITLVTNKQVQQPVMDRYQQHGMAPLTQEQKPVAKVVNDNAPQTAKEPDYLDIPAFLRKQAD
Kind of series: SPR.

Series [3] addresses T2, FtsZ from Klebsiella pneumoniae, full length, purified (tag state not stated) (Klebsiella pneumoniae, UniProt W9BCK7 1-383).
T2 chain: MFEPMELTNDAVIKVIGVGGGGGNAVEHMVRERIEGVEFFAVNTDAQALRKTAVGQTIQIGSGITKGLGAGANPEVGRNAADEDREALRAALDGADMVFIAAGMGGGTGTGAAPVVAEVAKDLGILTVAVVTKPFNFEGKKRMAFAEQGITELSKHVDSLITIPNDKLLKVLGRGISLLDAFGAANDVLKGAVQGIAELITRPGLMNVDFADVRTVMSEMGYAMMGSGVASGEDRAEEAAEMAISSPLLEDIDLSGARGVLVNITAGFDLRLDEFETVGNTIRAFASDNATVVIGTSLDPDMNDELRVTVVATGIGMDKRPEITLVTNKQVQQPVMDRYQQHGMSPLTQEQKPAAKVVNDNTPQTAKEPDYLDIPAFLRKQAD
Put plainly: SPR.

Series [4] deals with the molecule itself. Kind of series: cryo-EM structure; KpFtsZ-Mb double-helical tube: 4.0 mg/ml KpFtsZ, 20 mM HEPES pH 7.5, 25 mM NaCl, 100 mM KCl, 5 mM MgCl2, 1 mM GMPPNP, 0.12 mM PC190723, 1.2x molar excess of Mb.
Series [5] deals with the molecule itself. Put plainly: negative staining EM; 1.0 mg/ml purified KpFtsZ alone or with 1 mM GTP, GMPCPP, GDP or GMPPNP; uranyl acetate stain.

B1: truncated KpFtsZ (residues 11-316), tag removed (domain or fragment, Klebsiella pneumoniae, UniProt W9BCK7 11-316, looked up)
chain: AVIKVIGVGGGGGNAVEHMVRERIEGVEFFAVNTDAQALRKTAVGQTIQIGSGITKGLGAGANPEVGRNAADEDREALRAALDGADMVFIAAGMGGGTGTGAAPVVAEVAKDLGILTVAVVTKPFNFEGKKRMAFAEQGITELSKHVDSLITIPNDKLLKVLGRGISLLDAFGAANDVLKGAVQGIAELITRPGLMNVDFADVRTVMSEMGYAMMGSGVASGEDRAEEAAEMAISSPLLEDIDLSGARGVLVNITAGFDLRLDEFETVGNTIRAFASDNATVVIGTSLDPDMNDELRVTVVATGIG
notes: FtsZ, Klebsiella pneumoniae, residues 11-316; also called KpFtsZtr; source: E. coli, purified (HisTrap, HiTrap Q, Superdex200), tag removed with TEV protease; not shown: His6, N-terminal, cleaved
In the case of B1, in series [1], the binding result is reported as “binds”.

B2: truncated EcFtsZ (residues 11-316), tag removed (domain or fragment, Escherichia coli, UniProt P0A9A6 11-316, looked up)
chain: AVIKVIGVGGGGGNAVEHMVRERIEGVEFFAVNTDAQALRKTAVGQTIQIGSGITKGLGAGANPEVGRNAADEDRDALRAALEGADMVFIAAGMGGGTGTGAAPVVAEVAKDLGILTVAVVTKPFNFEGKKRMAFAEQGITELSKHVDSLITIPNDKLLKVLGRGISLLDAFGAANDVLKGAVQGIAELITRPGLMNVDFADVRTVMSEMGYAMMGSGVASGEDRAEEAAEMAISSPLLEDIDLSGARGVLVNITAGFDLRLDEFETVGNTIRAFASDNATVVIGTSLDPDMNDELRVTVVATGIG
notes: FtsZ, Escherichia coli, residues 11-316; also called EcFtsZtr; source: E. coli, purified (HisTrap, HiTrap Q, Superdex200), tag removed with TEV protease; not shown: His6, N-terminal, cleaved
In the case of B2, the binding result in series [1] is reported as “binds”.

B3: Mb(Ec/KpFtsZ_S1), His10-tagged (designed binder)
chain: MKHHHHHHHHHHSSDYKDDDDKGENLYFQGSVSSVPTKLEVVAATPTSLLISWDAPAVTVSYYRITYGETGGNSPVQEFTVPGSKSTATISGLSPGVDYTITVYARSAYHRRSPISINYRT
Take B3: the koff in series [2] is 0.39 s⁻¹; in series [3], 0.67 s⁻¹.

B4: FtsZ from Klebsiella pneumoniae, full length, tag removed (natural protein, UniProt W9BCK7 1-383, looked up)
chain: MFEPMELTNDAVIKVIGVGGGGGNAVEHMVRERIEGVEFFAVNTDAQALRKTAVGQTIQIGSGITKGLGAGANPEVGRNAADEDREALRAALDGADMVFIAAGMGGGTGTGAAPVVAEVAKDLGILTVAVVTKPFNFEGKKRMAFAEQGITELSKHVDSLITIPNDKLLKVLGRGISLLDAFGAANDVLKGAVQGIAELITRPGLMNVDFADVRTVMSEMGYAMMGSGVASGEDRAEEAAEMAISSPLLEDIDLSGARGVLVNITAGFDLRLDEFETVGNTIRAFASDNATVVIGTSLDPDMNDELRVTVVATGIGMDKRPEITLVTNKQVQQPVMDRYQQHGMSPLTQEQKPAAKVVNDNTPQTAKEPDYLDIPAFLRKQAD
notes: Used for cryoEM; Polymer (protofilament or double-helical tube); also called KpFtsZ; source: E. coli, purified (HisTrap, HiTrap Q, Superdex200), tag removed with TEV protease; not shown: His6, N-terminal, cleaved
Consider B4, for which, in series [4], the binding result is “binds”.

B5: FtsZ from Klebsiella pneumoniae, full length, purified (tag state not stated) (natural protein, UniProt W9BCK7 1-383, looked up)
chain: MFEPMELTNDAVIKVIGVGGGGGNAVEHMVRERIEGVEFFAVNTDAQALRKTAVGQTIQIGSGITKGLGAGANPEVGRNAADEDREALRAALDGADMVFIAAGMGGGTGTGAAPVVAEVAKDLGILTVAVVTKPFNFEGKKRMAFAEQGITELSKHVDSLITIPNDKLLKVLGRGISLLDAFGAANDVLKGAVQGIAELITRPGLMNVDFADVRTVMSEMGYAMMGSGVASGEDRAEEAAEMAISSPLLEDIDLSGARGVLVNITAGFDLRLDEFETVGNTIRAFASDNATVVIGTSLDPDMNDELRVTVVATGIGMDKRPEITLVTNKQVQQPVMDRYQQHGMSPLTQEQKPAAKVVNDNTPQTAKEPDYLDIPAFLRKQAD
notes: Used for SPR (analyte) and negative staining EM; also called KpFtsZ; source: E. coli, purified (HisTrap, HiTrap Q, Superdex200)
As to B5, in series [5], the binding result was “binds”.

These data come from PMC10333351 (Nature Communications, 2023).
